In patent US20240317834A1, “COMPOSITIONS AND METHODS FOR NEUROLOGICAL DISEASES” (CODA BIOTHERAPEUTICS, INC., priority 2020, published 2024):

Tested on: Lenti-X 293T cells
Test: YFP fluorescence quenching anion reporter plate reader assay of engineered receptors stimulated with acetylcholine or a non-native ligand
Assay type: cell-based
Settings: for percent quench of YFP fluorescence, 30 nM TC-6683: TC-6683 30 nM; for percent quench of YFP fluorescence, 300 nM TC-6683: TC-6683 300 nM; for percent quench of YFP fluorescence, 3 uM TC-6683: TC-6683 3 uM; for percent quench of YFP fluorescence, 30 uM TC-6683: TC-6683 30 uM; for percent quench of YFP fluorescence, 100 uM TC-6683: TC-6683 100 uM; for percent quench of YFP fluorescence, 10 uM ach: acetylcholine 10 uM; for percent quench of YFP fluorescence, 100 uM ach: acetylcholine 100 uM; for percent quench of YFP fluorescence, 1 mM ach: acetylcholine 1 mM; for percent quench of YFP fluorescence, 3 mM ach: acetylcholine 3 mM
Procedure, shortened: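 Lenti-X 293T cells carrying a YFP anion reporter were transiently transfected with channel DNA and assayed the next day in HEPES-buffered ECS at pH 7.2. Ligand (acetylcholine or non-native ligand) was added in NaI-substituted ECS. Percent quench was the mean of the last 10 s relative to the 15 s pre-addition baseline.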

B1: CODA340: engineered chimeric LGIC receptor, L131E in SEQ ID NO: 33 (protein)
chain: MRCSPGGVWLALAASLLHVSLQGEFQRKLYKELVKNYNPLERPVANDSQPLTVYFSLSLLQIMDVDEKNQVLTTNIWLQMSWTDHYLQWNVSEYPGVKTVRFPDGQIWKPDILLYNSADERFDATFHTNVEVNSSGHCQYLPPGIFKSSCPMDLKNFPMDVQTCKLKFGSWSYGGWSLDLQMQEADISGYIPNGEWDLVGIPGKRSERFYECCKEPYPDVTFTVTMRRRMGYYLIQMYIPSLLIVILSWISFWINMDAAPARVGLGITTVLTMTTQSSGSRASLPKVSYVKAIDIWMAVCLLFVFSALLEYAAVNFVSRQHKELLRFRRKRRHHKSPMLNLFQEDEAGEGRFNFSAYGMGPACLQAKDGISVKGANNSNTTNPPPAPSKSPEEMRKLFIQRAKKIDKISRIGFPMAFLIFNMFYWIIYKIVRREDVHNQ
modifications: synthetic sequence of chimeric LGIC
YFP fluorescence quenching using CNL001 (1 nM CNL001, first column): 76.413% | YFP fluorescence quenching using CNL001 (1 nM CNL001, second column): 77.144% | YFP fluorescence quenching using TC-5619/Bradanicline (3 nM brd): 68.57% | YFP fluorescence quenching using Varenicline (3 nM var, first column): −4.061 | YFP fluorescence quenching using Varenicline (3 nM var, second column): −0.568 | YFP fluorescence quenching using CNL001 (10 nM CNL001, first column): 78.258% | YFP fluorescence quenching using CNL001 (10 nM CNL001, second column): 78.763% | YFP fluorescence quenching using TC-5619/Bradanicline (30 nM brd): 76.85% | YFP fluorescence quenching using Facinicline (30 nM fac): 82.51 | YFP fluorescence quenching using Varenicline (30 nM var, first column): 62.964 | YFP fluorescence quenching using Varenicline (30 nM var, second column): 63.631 | YFP fluorescence quenching using CNL001 (50 nM CNL001, first column): 79.757% | YFP fluorescence quenching using CNL001 (50 nM CNL001, second column): 79.327% | YFP fluorescence quenching using ABT-126 (50 nM abt): 2.2% | YFP fluorescence quenching using CNL001 (100 nM CNL001, first column): 79.011% | YFP fluorescence quenching using CNL001 (100 nM CNL001, second column): 79.948% | YFP fluorescence quenching using CNL002 (100 nM CNL002): 49.97% | YFP fluorescence quenching using ABT-126 (100 nM abt): 25.39% | YFP fluorescence quenching using AZD-0328 (100 nM azd0328): 82.48% | YFP fluorescence quenching using Facinicline (100 nM fac): 83.6 | YFP fluorescence quenching using ABT-126 (300 nM abt): 36.48% | YFP fluorescence quenching using AZD-0328 (300 nM azd0328): 82.04% | YFP fluorescence quenching using TC-5619/Bradanicline (300 nM brd): 78.49% | YFP fluorescence quenching using Facinicline (300 nM fac): 82.92 | YFP fluorescence quenching using Varenicline (300 nM var, first column): 74.912 | YFP fluorescence quenching using Varenicline (300 nM var, second column): 75.084 | YFP fluorescence quenching using Varenicline (500 nM var, first column): 76.346 | YFP fluorescence quenching using Varenicline (500 nM var, second column): 75.876 | YFP fluorescence quenching using CNL001 (1 uM CNL001, first column): 79.855% | YFP fluorescence quenching using CNL001 (1 uM CNL001, second column): 80.618% | YFP fluorescence quenching using CNL002 (1 uM CNL002): 67.8% | YFP fluorescence quenching using ABT-126 (1 uM abt): 50.76% | YFP fluorescence quenching using TC-6987 (1 uM tc6987): 80.13 | YFP fluorescence quenching using Varenicline (1 uM var, first column): 75.805 | YFP fluorescence quenching using Varenicline (1 uM var, second column): 74.856 | YFP fluorescence quenching using TC-6987 (10 uM tc6987): 81.29 | YFP fluorescence quenching using CNL002 (30 uM CNL002): 64.58% | YFP fluorescence quenching using AZD-0328 (30 uM azd0328): 81.8% | YFP fluorescence quenching using Facinicline (30 uM fac): 82.68 | YFP fluorescence quenching using TC-6987 (500 uM tc6987): 79.6 | percent quench of YFP fluorescence, 30 nM TC-6683: 30.14% | percent quench of YFP fluorescence, 300 nM TC-6683: 33.02% | percent quench of YFP fluorescence, 3 uM TC-6683: 41.68% | percent quench of YFP fluorescence, 30 uM TC-6683: 35.75% | percent quench of YFP fluorescence, 100 uM TC-6683: 24.32% | percent quench of YFP fluorescence, 10 uM ach: 15.29% | percent quench of YFP fluorescence, 30 uM ach (acetylcholine 30 uM): 66.56% | percent quench of YFP fluorescence, 100 uM ach: 81.31% | percent quench of YFP fluorescence, 1 mM ach: 80.77% | percent quench of YFP fluorescence, 3 mM ach: 77.31%

B2: CODA342: engineered chimeric LGIC receptor, L131R in SEQ ID NO: 33 (protein)
chain: MRCSPGGVWLALAASLLHVSLQGEFQRKLYKELVKNYNPLERPVANDSQPLTVYFSLSLLQIMDVDEKNQVLTTNIWLQMSWTDHYLQWNVSEYPGVKTVRFPDGQIWKPDILLYNSADERFDATFHTNVRVNSSGHCQYLPPGIFKSSCPMDLKNFPMDVQTCKLKFGSWSYGGWSLDLQMQEADISGYIPNGEWDLVGIPGKRSERFYECCKEPYPDVTFTVTMRRRMGYYLIQMYIPSLLIVILSWISFWINMDAAPARVGLGITTVLTMTTQSSGSRASLPKVSYVKAIDIWMAVCLLFVFSALLEYAAVNFVSRQHKELLRFRRKRRHHKSPMLNLFQEDEAGEGRFNFSAYGMGPACLQAKDGISVKGANNSNTTNPPPAPSKSPEEMRKLFIQRAKKIDKISRIGFPMAFLIFNMFYWIIYKIVRREDVHNQ
modifications: synthetic sequence of chimeric LGIC
YFP fluorescence quenching using CNL001 (1 nM CNL001, first column): 23.532% | YFP fluorescence quenching using CNL001 (1 nM CNL001, second column): 26.054% | YFP fluorescence quenching using TC-5619/Bradanicline (1 nM brd): −7.83% | YFP fluorescence quenching using TC-5619/Bradanicline (3 nM brd): −12.89% | YFP fluorescence quenching using Varenicline (3 nM var, first column): 0.271 | YFP fluorescence quenching using Varenicline (3 nM var, second column): −3.613 | YFP fluorescence quenching using CNL001 (10 nM CNL001, first column): 43.69% | YFP fluorescence quenching using CNL001 (10 nM CNL001, second column): 54.016% | YFP fluorescence quenching using TC-5619/Bradanicline (10 nM brd): −10.47% | YFP fluorescence quenching using TC-5619/Bradanicline (30 nM brd): 59.48% | YFP fluorescence quenching using Facinicline (30 nM fac): −6.2 | YFP fluorescence quenching using Varenicline (30 nM var, first column): −4.935 | YFP fluorescence quenching using Varenicline (30 nM var, second column): −4.363 | YFP fluorescence quenching using CNL001 (50 nM CNL001, first column): 59.955% | YFP fluorescence quenching using CNL001 (50 nM CNL001, second column): 56.091% | YFP fluorescence quenching using ABT-126 (50 nM abt): −18.14% | YFP fluorescence quenching using CNL001 (100 nM CNL001, first column): 64.536% | YFP fluorescence quenching using CNL001 (100 nM CNL001, second column): 58.987% | YFP fluorescence quenching using CNL002 (100 nM CNL002): −17.2% | YFP fluorescence quenching using ABT-126 (100 nM abt): −18.14% | YFP fluorescence quenching using AZD-0328 (100 nM azd0328): 1.79% | YFP fluorescence quenching using TC-5619/Bradanicline (100 nM brd): 70.19% | YFP fluorescence quenching using ABT-126 (300 nM abt): −0.81% | YFP fluorescence quenching using AZD-0328 (300 nM azd0328): 66.58% | YFP fluorescence quenching using TC-5619/Bradanicline (300 nM brd): 75.11% | YFP fluorescence quenching using Facinicline (300 nM fac): 76.75 | YFP fluorescence quenching using Varenicline (300 nM var, first column): 0.282 | YFP fluorescence quenching using Varenicline (300 nM var, second column): 2.32 | YFP fluorescence quenching using ABT-126 (500 nM abt): 23.29% | YFP fluorescence quenching using Varenicline (500 nM var, first column): 23.777 | YFP fluorescence quenching using Varenicline (500 nM var, second column): 18.376 | YFP fluorescence quenching using CNL001 (1 uM CNL001, first column): 65.987% | YFP fluorescence quenching using CNL001 (1 uM CNL001, second column): 64.312% | YFP fluorescence quenching using CNL002 (1 uM CNL002): 8.12% | YFP fluorescence quenching using ABT-126 (1 uM abt): 45.76% | YFP fluorescence quenching using TC-5619/Bradanicline (1 uM brd): 77.42% | YFP fluorescence quenching using TC-6987 (1 uM tc6987): 2.51 | YFP fluorescence quenching using Varenicline (1 uM var, first column): 66.17 | YFP fluorescence quenching using Varenicline (1 uM var, second column): 66.088 | YFP fluorescence quenching using ABT-126 (3 uM abt): 53.03% | YFP fluorescence quenching using ABT-126 (10 uM abt): 64.08% | YFP fluorescence quenching using Facinicline (10 uM fac): 82.16 | YFP fluorescence quenching using TC-6987 (10 uM tc6987): 46.22 | YFP fluorescence quenching using CNL002 (30 uM CNL002): 57.24% | YFP fluorescence quenching using ABT-126 (30 uM abt): 71.98% | YFP fluorescence quenching using AZD-0328 (30 uM azd0328): 80.55% | YFP fluorescence quenching using Facinicline (30 uM fac): 81.71 | YFP fluorescence quenching using ABT-126 (50 uM abt): 73.98% | YFP fluorescence quenching using ABT-126 (100 uM abt): 73.51% | YFP fluorescence quenching using TC-6987 (500 uM tc6987): 68.33 | percent quench of YFP fluorescence, 30 nM TC-6683: −16.26% | percent quench of YFP fluorescence, 300 nM TC-6683: −22.45% | percent quench of YFP fluorescence, 3 uM TC-6683: −13.48% | percent quench of YFP fluorescence, 30 uM TC-6683: −12.68% | percent quench of YFP fluorescence, 100 uM TC-6683: −10.33% | percent quench of YFP fluorescence, 10 uM ach: −2.57% | percent quench of YFP fluorescence, 100 uM ach: −3.18% | percent quench of YFP fluorescence, 1 mM ach: 78.98% | percent quench of YFP fluorescence, 3 mM ach: 75.75%
